Data from IntAct's records for PubMed 20935634.

B1: Tumor necrosis factor receptor superfamily member 6 (Homo sapiens), P25445-1 (parent)
chain: MLGIWTLLPLVLTSVARLSSKSVNAQVTDINSKGLELRKTVTTVETQNLEGLHHDGQFCHKPCPPGERKARDCTVNGDEPDCVPCQEGKEYTDKAHFSSKCRRCRLCDEGHGLEVEINCTRTQNTKCRCKPNFFCNSTVCEHCDPCTKCEHGIIKECTLTSNTKCKEEGSRSNLGWLCLLLLPIPLIVWVKRKEVQKTCRKHRKENQGSHESPTLNPETVAINLSDVDLSKYITTIAGVMTLSQVKGFVRKNGVNEAKIDEIKNDNVQDTAEQKVQLLRNWHQLHGKKEAYDTLIKDLKKANLCTLAEKIQTIILKDITSDSENSNFRNEIQSLV
B2: FAS-associated death domain protein (Homo sapiens), Q13158 (parent)
chain: MDPFLVLLHSVSSSLSSSELTELKFLCLGRVGKRKLERVQSGLDLFSMLLEQNDLEPGHTELLRELLASLRRHDLLRRVDDFEAGAAAGAAPGEEDLCAAFNVICDNVGKDWRRLARQLKVSDTKIDSIEDRYPRNLTERVRESLRIWKNTEKENATVAHLVGALRSCQMNLVADLVQEVQQARDLQNRSGAMSPMSWNSDASTSEAS

Variants of: B1
Settings: with fadd_human FADD

| Variant | effect of a mutation on the interaction |
| --- | --- |
| R250E | disrupting interaction strength |
| R250Q | decreasing interaction strength |
| Q283K | disrupting interaction |
| A257D | disrupting interaction |
| D260Y | disrupting interaction |
| K287D | disrupting interaction |
| T270K | disrupting interaction |
| E261K | disrupting interaction |
| E272K | disrupting interaction |

Variants of: B1
Settings: with fadd_human FADD
Remark: another data set of the same source

| Variant | effect of a mutation on the interaction |
| --- | --- |
| R250E | decreasing interaction |
| D260Y | disrupting interaction strength |
| D260V | disrupting interaction strength |

Variants of: B2
Settings: with FAS

| Variant | effect of a mutation on the interaction |
| --- | --- |
| D123R | disrupting interaction |
| R142E | disrupting interaction |
| D175K | disrupting interaction |
| L172K | disrupting interaction |
| R117E | disrupting interaction |
| R135E | disrupting interaction |

Variants of: B2
Settings: with FAS
Remark: another data set of the same source

| Variant | effect of a mutation on the interaction |
| --- | --- |
| D123R | decreasing interaction |
| R142E | decreasing interaction |
| L172E | disrupting interaction |
| K153E | decreasing interaction |
| R135E | decreasing interaction |
